Test results as given in publication PMC4015309, “Interaction of translationally controlled tumor protein with Apaf-1 is involved in the development of chemoresistance in HeLa cells” (BMC Cancer, 2014).

T1: Full APAF-1 (residues 1-1194), His-tagged (UniProt O14727-3 1-1194)
T1 construct: Apaf-1, full length, printed length 1194 residues (residues 1-1194): CARD 1-97, CED-4 98-412, WD-40 repeats 413-1194; also called full-length Apaf-1; His-Apaf-1; source: E. coli BL21(DE3)pLysS, purified (Ni Sepharose beads); not shown: His tag, C-terminal, kept
T1 sequence (looked up): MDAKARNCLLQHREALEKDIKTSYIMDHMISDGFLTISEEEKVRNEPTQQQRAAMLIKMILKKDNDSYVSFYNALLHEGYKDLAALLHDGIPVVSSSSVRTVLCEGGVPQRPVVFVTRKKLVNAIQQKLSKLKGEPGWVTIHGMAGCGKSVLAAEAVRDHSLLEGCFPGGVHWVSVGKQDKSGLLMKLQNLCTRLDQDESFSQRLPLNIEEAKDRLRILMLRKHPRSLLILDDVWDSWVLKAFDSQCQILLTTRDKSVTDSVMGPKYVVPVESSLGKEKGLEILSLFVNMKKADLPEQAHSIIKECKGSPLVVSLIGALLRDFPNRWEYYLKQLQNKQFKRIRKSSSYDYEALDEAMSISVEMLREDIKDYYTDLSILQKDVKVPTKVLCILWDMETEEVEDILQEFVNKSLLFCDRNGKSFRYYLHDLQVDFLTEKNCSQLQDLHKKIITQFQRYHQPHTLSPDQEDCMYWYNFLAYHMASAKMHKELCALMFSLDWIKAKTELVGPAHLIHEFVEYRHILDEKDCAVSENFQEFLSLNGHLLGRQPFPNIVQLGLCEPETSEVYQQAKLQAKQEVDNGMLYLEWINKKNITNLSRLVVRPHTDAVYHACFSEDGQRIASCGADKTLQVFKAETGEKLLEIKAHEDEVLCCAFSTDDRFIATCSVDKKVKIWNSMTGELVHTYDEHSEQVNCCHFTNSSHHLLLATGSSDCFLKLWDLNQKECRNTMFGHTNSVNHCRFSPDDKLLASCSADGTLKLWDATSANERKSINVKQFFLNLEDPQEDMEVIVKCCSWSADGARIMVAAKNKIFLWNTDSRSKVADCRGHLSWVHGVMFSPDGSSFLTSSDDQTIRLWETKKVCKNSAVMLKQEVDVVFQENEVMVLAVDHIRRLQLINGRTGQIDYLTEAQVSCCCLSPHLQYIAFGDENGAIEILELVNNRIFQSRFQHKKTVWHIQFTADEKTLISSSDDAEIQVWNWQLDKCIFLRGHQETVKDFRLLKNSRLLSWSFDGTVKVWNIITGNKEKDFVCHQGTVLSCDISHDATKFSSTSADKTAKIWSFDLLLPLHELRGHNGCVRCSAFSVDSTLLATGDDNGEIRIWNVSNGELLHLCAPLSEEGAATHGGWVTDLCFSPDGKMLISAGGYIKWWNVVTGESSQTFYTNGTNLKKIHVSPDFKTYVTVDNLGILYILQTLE

T2: APAF-530 (Apaf-1 residues 1-530), His-tagged (UniProt O14727-3 1-530)
T2 construct: Apaf-1 residues 1-530; source: E. coli BL21(DE3)pLysS, purified (Ni Sepharose beads); not shown: His tag, C-terminal, kept
T2 sequence (looked up): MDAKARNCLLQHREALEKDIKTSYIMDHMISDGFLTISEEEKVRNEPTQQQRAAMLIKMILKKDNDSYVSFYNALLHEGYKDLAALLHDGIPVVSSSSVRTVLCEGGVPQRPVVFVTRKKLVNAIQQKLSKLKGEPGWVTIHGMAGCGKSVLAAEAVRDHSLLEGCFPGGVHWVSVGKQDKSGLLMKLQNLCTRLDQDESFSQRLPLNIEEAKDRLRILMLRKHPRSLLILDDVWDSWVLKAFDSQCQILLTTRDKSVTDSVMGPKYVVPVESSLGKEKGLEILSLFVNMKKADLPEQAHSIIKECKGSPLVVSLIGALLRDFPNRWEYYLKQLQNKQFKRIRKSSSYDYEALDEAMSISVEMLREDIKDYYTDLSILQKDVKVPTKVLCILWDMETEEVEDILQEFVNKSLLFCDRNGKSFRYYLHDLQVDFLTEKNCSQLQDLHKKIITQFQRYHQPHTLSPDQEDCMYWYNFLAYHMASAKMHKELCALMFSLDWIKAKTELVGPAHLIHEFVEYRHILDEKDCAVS

T3: APAF-420 (Apaf-1 residues 1-420), His-tagged (UniProt O14727-3 1-420)
T3 construct: Apaf-1 residues 1-420; source: E. coli BL21(DE3)pLysS, purified (Ni Sepharose beads); not shown: His tag, C-terminal, kept
T3 sequence (looked up): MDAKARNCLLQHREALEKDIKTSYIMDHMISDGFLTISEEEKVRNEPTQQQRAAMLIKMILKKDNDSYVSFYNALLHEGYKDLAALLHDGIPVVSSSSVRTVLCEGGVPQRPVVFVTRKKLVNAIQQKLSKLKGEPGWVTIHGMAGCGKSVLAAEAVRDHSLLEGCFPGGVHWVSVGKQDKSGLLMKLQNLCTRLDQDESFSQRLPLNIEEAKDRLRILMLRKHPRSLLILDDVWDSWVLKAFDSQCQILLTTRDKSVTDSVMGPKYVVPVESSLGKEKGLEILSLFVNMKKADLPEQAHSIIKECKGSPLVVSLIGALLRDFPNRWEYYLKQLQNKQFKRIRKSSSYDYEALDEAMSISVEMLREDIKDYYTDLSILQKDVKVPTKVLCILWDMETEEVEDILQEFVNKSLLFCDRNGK

B1: TCTP-GST (GST-tagged recombinant TCTP) (natural protein, human, UniProt P13693 1-172, looked up)
chain: MIIYRDLISHDEMFSDIYKIREIADGLCLEVEGKMVSRTEGNIDDSLIGGNASAEGPEGEGTESTVITGVDIVMNHHLQETSFTKEAYKKYIKDYMKSIKGKLEEQRPERVKPFMTGAAEQIKHILANFKNYQFFIGENMNPDGMVALLDYREDGVTPYMIFFKDGLEMEKC
notes: translationally controlled tumor protein (TCTP); also called GST-tagged TCTP; TCTP-GST protein; source: E. coli, purified (GST fusion protein purification kit)
B2: APAF-97 (Apaf-1 residues 1-97, CARD), His-tagged (domain or fragment, UniProt O14727 1-97, looked up)
chain: MDAKARNCLLQHREALEKDIKTSYIMDHMISDGFLTISEEEKVRNEPTQQQRAAMLIKMILKKDNDSYVSFYNALLHEGYKDLAALLHDGIPVVSSS
notes: Apaf-1 residues 1-97 (caspase recruitment domain, CARD); also called APF-97; CARD of Apaf-1; source: E. coli BL21(DE3)pLysS, purified (Ni Sepharose beads); not shown: His tag, C-terminal, kept

Tests used:
Assay in all cases: pull-down; His-tagged Apaf-1 variants or WDR immobilised on Handee spin column, incubated with TCTP-GST; eluates separated by SDS-PAGE and silver stained
Conditions in all cases: both partners purified
[1] = target: T1, Full APAF-1 (residues 1-1194), …
[2] = target: T2, APAF-530 (Apaf-1 residues 1-530), …
[3] = target: T3, APAF-420 (Apaf-1 residues 1-420), …
[4] = target: B1

Binder	binding result [1]	binding result [2]	binding result [3]	binding result [4]
B1	binds	binds	binds	–
B2	–	–	–	binds
